# Source: the supplement of paper PMC6757056
# ± gives the standard deviation of the averaged measurements.
# B1: library; a variant is named by its letters at N, in order (parent)
# chain: GCUGUCACCGGUGUAUUACCCUAGUGGUCGACCGGUCUGAUGAGUCUNNNNNNAGACGAAACAGC
# Key:
# [1] = variants of: B1; assay: normalized RNA/DNA level with ligand (relative to sTRSVctl = 100) (log10 (% of sTRSVctl)); ligand: hypoxanthine (xanthine aptamer); higher = less ribozyme self-cleavage, higher mRNA level; conditions: ligand concentration (+) RNA-Seq: 5 mM, HEK293T, reporter: mCherry (pCS4076), ligand present: yes
# Summary of the method: (§1)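 Ribozyme switch library plasmids with mCherry reporters (eGFP in certain ligand experiments) went into HEK293T cells at 4 µg per 6-well well. Where ligand was used, it was applied 1 h before transfection, and total RNA was extracted with EDTA 72 h later for reverse transcription, amplification, barcoding and sequencing. RNA level is the RNA-to-DNA read ratio normalized to a spiked-in non-cleaving sequence or to the leading sequences, then scaled and log-transformed. Scaling was ×100 with log10, the leading set comprised 25 sequences, and the cutoff was ≥100 DNA reads.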
# [2] = variants of: B1; assay: normalized RNA/DNA level without ligand (relative to sTRSVctl = 100) (log10 (% of sTRSVctl)); ligand: hypoxanthine (xanthine aptamer); higher = less ribozyme self-cleavage, higher mRNA level; conditions: HEK293T, reporter: mCherry (pCS4076), ligand present: no
# Summary of the method: as §1
Variant,normalized RNA/DNA level with ligand (log10) [1],normalized RNA/DNA level without ligand (log10) [2]
GCUGUCACCGGUGUAUUACCCUAGUGGUCGACCGGUCUGAUGAGUCUCACGACAGACGAAACAGC,1.95 ± 0.028,1.84 ± 0.0038
GCUGUCACCGGUGUAUUACCCUAGUGGUCGACCGGUCUGAUGAGUCUCACGAUAGACGAAACAGC,1.95 ± 0.027,1.78 ± 0.043
GCUGUCACCGGUGUAUUACCCUAGUGGUCGACCGGUCUGAUGAGUCUCACGAGAGACGAAACAGC,1.9 ± 0.035,1.6 ± 0.026
GCUGUCACCGGUGUAUUACCCUAGUGGUCGACCGGUCUGAUGAGUCUUACGACAGACGAAACAGC,1.9194 ± 0.00024,1.804 ± 0.0045
GCUGUCACCGGUGUAUUACCCUAGUGGUCGACCGGUCUGAUGAGUCUUACGUAAGACGAAACAGC,1.88 ± 0.09,1.829 ± 0.004
GCUGUCACCGGUGUAUUACCCUAGUGGUCGACCGGUCUGAUGAGUCUAACGAUAGACGAAACAGC,1.9 ± 0.028,1.653 ± 0.011
GCUGUCACCGGUGUAUUACCCUAGUGGUCGACCGGUCUGAUGAGUCUUACCGCAGACGAAACAGC,1.942 ± 0.0069,1.8 ± 0.039
GCUGUCACCGGUGUAUUACCCUAGUGGUCGACCGGUCUGAUGAGUCUCACCUAAGACGAAACAGC,1.921 ± 0.0097,1.76 ± 0.11
GCUGUCACCGGUGUAUUACCCUAGUGGUCGACCGGUCUGAUGAGUCUCACCUCAGACGAAACAGC,1.99 ± 0.081,1.969 ± 0.011
GCUGUCACCGGUGUAUUACCCUAGUGGUCGACCGGUCUGAUGAGUCUCACCUGAGACGAAACAGC,2.01 ± 0.064,1.922 ± 0.009
GCUGUCACCGGUGUAUUACCCUAGUGGUCGACCGGUCUGAUGAGUCUUACGCGAGACGAAACAGC,1.893 ± 0.018,1.62 ± 0.069
GCUGUCACCGGUGUAUUACCCUAGUGGUCGACCGGUCUGAUGAGUCUUACGCUAGACGAAACAGC,1.95 ± 0.067,1.846 ± 0.012
GCUGUCACCGGUGUAUUACCCUAGUGGUCGACCGGUCUGAUGAGUCUUACGCCAGACGAAACAGC,2 ± 0.079,1.82 ± 0.036
GCUGUCACCGGUGUAUUACCCUAGUGGUCGACCGGUCUGAUGAGUCUGACGCGAGACGAAACAGC,1.872 ± 0.0041,1.51 ± 0.11
GCUGUCACCGGUGUAUUACCCUAGUGGUCGACCGGUCUGAUGAGUCUGACGCCAGACGAAACAGC,1.9 ± 0.04,1.79 ± 0.054
GCUGUCACCGGUGUAUUACCCUAGUGGUCGACCGGUCUGAUGAGUCUGACGCAAGACGAAACAGC,1.91 ± 0.052,1.82 ± 0.034
GCUGUCACCGGUGUAUUACCCUAGUGGUCGACCGGUCUGAUGAGUCUCACGCGAGACGAAACAGC,1.9257 ± 1.5e-05,1.88 ± 0.029
GCUGUCACCGGUGUAUUACCCUAGUGGUCGACCGGUCUGAUGAGUCUCACGCCAGACGAAACAGC,1.99 ± 0.047,1.839 ± 0.015
GCUGUCACCGGUGUAUUACCCUAGUGGUCGACCGGUCUGAUGAGUCUCACGCAAGACGAAACAGC,1.92 ± 0.054,1.81 ± 0.041
GCUGUCACCGGUGUAUUACCCUAGUGGUCGACCGGUCUGAUGAGUCUCACGGGAGACGAAACAGC,1.84 ± 0.033,1.32 ± 0.019
GCUGUCACCGGUGUAUUACCCUAGUGGUCGACCGGUCUGAUGAGUCUCACGGCAGACGAAACAGC,1.965 ± 0.003,1.87 ± 0.013

Variant,normalized RNA/DNA level with ligand (log10) [1],normalized RNA/DNA level without ligand (log10) [2]
GCUGUCACCGGUGUAUUACCCUAGUGGUCGACCGGUCUGAUGAGUCUCACGGAAGACGAAACAGC,1.912 ± 0.0058,1.8 ± 0.048
GCUGUCACCGGUGUAUUACCCUAGUGGUCGACCGGUCUGAUGAGUCUGACGGCAGACGAAACAGC,1.95 ± 0.07,1.63 ± 0.055
GCUGUCACCGGUGUAUUACCCUAGUGGUCGACCGGUCUGAUGAGUCUGACGGUAGACGAAACAGC,1.95 ± 0.036,1.797 ± 0.0024
GCUGUCACCGGUGUAUUACCCUAGUGGUCGACCGGUCUGAUGAGUCUGACGGAAGACGAAACAGC,1.92 ± 0.047,1.683 ± 0.0063
GCUGUCACCGGUGUAUUACCCUAGUGGUCGACCGGUCUGAUGAGUCUGACGGGAGACGAAACAGC,1.885 ± 0.0056,1.41 ± 0.039
GCUGUCACCGGUGUAUUACCCUAGUGGUCGACCGGUCUGAUGAGUCUAACGCAAGACGAAACAGC,1.9072 ± 0.0004,1.76 ± 0.03
GCUGUCACCGGUGUAUUACCCUAGUGGUCGACCGGUCUGAUGAGUCUUACGGUAGACGAAACAGC,1.847 ± 0.0077,1.59 ± 0.064
GCUGUCACCGGUGUAUUACCCUAGUGGUCGACCGGUCUGAUGAGUCUUACCUCAGACGAAACAGC,1.99 ± 0.082,1.93 ± 0.067
GCUGUCACCGGUGUAUUACCCUAGUGGUCGACCGGUCUGAUGAGUCUUACCUUAGACGAAACAGC,1.927 ± 0.017,1.89 ± 0.054
GCUGUCACCGGUGUAUUACCCUAGUGGUCGACCGGUCUGAUGAGUCUAACCUCAGACGAAACAGC,1.937 ± 0.018,1.96 ± 0.027
GCUGUCACCGGUGUAUUACCCUAGUGGUCGACCGGUCUGAUGAGUCUAACCUUAGACGAAACAGC,1.9 ± 0.054,1.895 ± 0.0019
GCUGUCACCGGUGUAUUACCCUAGUGGUCGACCGGUCUGAUGAGUCUAACCUAAGACGAAACAGC,1.93 ± 0.028,1.84 ± 0.047
GCUGUCACCGGUGUAUUACCCUAGUGGUCGACCGGUCUGAUGAGUCUCACCGCAGACGAAACAGC,2.015 ± 0.0091,1.91 ± 0.042
GCUGUCACCGGUGUAUUACCCUAGUGGUCGACCGGUCUGAUGAGUCUCACCGGAGACGAAACAGC,1.875 ± 0.0026,1.58 ± 0.13
GCUGUCACCGGUGUAUUACCCUAGUGGUCGACCGGUCUGAUGAGUCUCACCGUAGACGAAACAGC,1.93 ± 0.064,1.892 ± 0.011
GCUGUCACCGGUGUAUUACCCUAGUGGUCGACCGGUCUGAUGAGUCUGACGUAAGACGAAACAGC,1.92 ± 0.033,1.773 ± 0.0082
GCUGUCACCGGUGUAUUACCCUAGUGGUCGACCGGUCUGAUGAGUCUGACCGAAGACGAAACAGC,1.97 ± 0.032,1.8545 ± 0.00036
GCUGUCACCGGUGUAUUACCCUAGUGGUCGACCGGUCUGAUGAGUCUGACCGCAGACGAAACAGC,1.89 ± 0.029,1.7634 ± 0.0011
GCUGUCACCGGUGUAUUACCCUAGUGGUCGACCGGUCUGAUGAGUCUGACCUAAGACGAAACAGC,1.935 ± 0.01,1.85 ± 0.033
GCUGUCACCGGUGUAUUACCCUAGUGGUCGACCGGUCUGAUGAGUCUGACCUUAGACGAAACAGC,1.95 ± 0.033,1.885 ± 0.015
GCUGUCACCGGUGUAUUACCCUAGUGGUCGACCGGUCUGAUGAGUCUGACCUCAGACGAAACAGC,1.93 ± 0.031,1.909 ± 0.0094
